Results taken from patent US20240116985A1 (published 2024).
Starred links: 1 amine or outer side, 2 acyl side, 3 side chain; linkers in the order of their positions; H or OH if unused. Positions of bridges follow the written chain, without caps; N, C: chain ends. Non-standard residues stand in square brackets, D forms with d. Primed or numbered codes have the meaning given here. *: point of attachment. (4CF3PhAc)GAbu = (S)-2-amino-4-(N-(carboxymethyl)-2-(4-(trifluoromethyl)phenyl)acetamido)butanoic acid, O=C(Cc1ccc(C(F)(F)F)cc1)N(CC[C@H](N[*:1])C(=O)[*:2])CC(=O)[*:3]; (MeMorphBz)GAbu = (S)-2-amino-4-(N-(carboxymethyl)-4-(morpholinomethyl)benzamido)butanoic acid, O=C(c1ccc(CN2CCOCC2)cc1)N(CC[C@H](N[*:1])C(=O)[*:2])CC(=O)[*:3]; (4AcMePip)GAbu = (S)-2-amino-4-(N-(carboxymethyl)-1-methylpiperidine-4-carboxamido)butanoic acid, CN1CCC(C(=O)N(CC[C@H](N[*:1])C(=O)[*:2])CC(=O)[*:3])CC1; PyrS2″ = (S)-3-amino-1-((pent-4-en-1-yloxy)carbonyl)pyrrolidine-3-carboxylic acid (stapling residue), C=CCCCOC(=O)N1CC[C@@](N[*:1])(C(=O)[*:2])C1; (MorphAc)GAbu = (S)-2-amino-4-(N-(carboxymethyl)-2-morpholinoacetamido)butanoic acid, O=C(CN1CCOCC1)N(CC[C@H](N[*:1])C(=O)[*:2])CC(=O)[*:3]; PyrS2 = (S)-3-amino-1-((pent-4-en-1-yloxy)carbonyl)pyrrolidine-3-carboxylic acid, C=CCCCOC(=O)N1CC[C@@](N[*:1])(C(=O)[*:2])C1; B5(22) = 2-amino-2-(pent-4-en-1-yl)hept-6-enoic acid (two alkene side chains), C=CCCCC(CCCC=C)(N[*:1])C(=O)[*:2]; GAbu = (S)-2-amino-4-((carboxymethyl)amino)butanoic acid, O=C([C@H](CCNCC(=O)[*:3])N[*:1])[*:2]; B5(3) = 2,2-bis(4-pentenyl)glycine (stitching residue), C=CCCCC(CCCC=C)(N[*:1])C(=O)[*:2]; B5 = 2-amino-2-(pent-4-en-1-yl)hept-6-enoic acid, C=CCCCC(CCCC=C)(N[*:1])C(=O)[*:2]; Acetyl(4-Me-piperazin-1-yl) = CN1CCN(CC(=O)*)CC1; Phe(3-COOH) = N[C@@H](Cc1cccc(C(=O)O)c1)C(=O)O; Ala(4-thiazolyl) = N[C@@H](Cc1cscn1)C(=O)O; Phe(3-F) = N[C@@H](Cc1cccc(F)c1)C(=O)O; Phe(4-F) = N[C@@H](Cc1ccc(F)cc1)C(=O)O; 1Nal = N[C@@H](Cc1cccc2ccccc12)C(=O)O; Bta = N[C@@H](Cc1csc2ccccc12)C(=O)O; αAllylPro = C=CC[C@@]1(C(=O)O)CCCN1; tBuAla = CC(C)(C)C[C@H](N)C(=O)O; 3Thi = N[C@@H](Cc1ccsc1)C(=O)O; Cit = NC(=O)NCCC[C@H](N)C(=O)O; hSer = N[C@@H](CCO)C(=O)O

T1: B-cat-Halo (UniProt P35222 1-781)
T1 sequence (looked up): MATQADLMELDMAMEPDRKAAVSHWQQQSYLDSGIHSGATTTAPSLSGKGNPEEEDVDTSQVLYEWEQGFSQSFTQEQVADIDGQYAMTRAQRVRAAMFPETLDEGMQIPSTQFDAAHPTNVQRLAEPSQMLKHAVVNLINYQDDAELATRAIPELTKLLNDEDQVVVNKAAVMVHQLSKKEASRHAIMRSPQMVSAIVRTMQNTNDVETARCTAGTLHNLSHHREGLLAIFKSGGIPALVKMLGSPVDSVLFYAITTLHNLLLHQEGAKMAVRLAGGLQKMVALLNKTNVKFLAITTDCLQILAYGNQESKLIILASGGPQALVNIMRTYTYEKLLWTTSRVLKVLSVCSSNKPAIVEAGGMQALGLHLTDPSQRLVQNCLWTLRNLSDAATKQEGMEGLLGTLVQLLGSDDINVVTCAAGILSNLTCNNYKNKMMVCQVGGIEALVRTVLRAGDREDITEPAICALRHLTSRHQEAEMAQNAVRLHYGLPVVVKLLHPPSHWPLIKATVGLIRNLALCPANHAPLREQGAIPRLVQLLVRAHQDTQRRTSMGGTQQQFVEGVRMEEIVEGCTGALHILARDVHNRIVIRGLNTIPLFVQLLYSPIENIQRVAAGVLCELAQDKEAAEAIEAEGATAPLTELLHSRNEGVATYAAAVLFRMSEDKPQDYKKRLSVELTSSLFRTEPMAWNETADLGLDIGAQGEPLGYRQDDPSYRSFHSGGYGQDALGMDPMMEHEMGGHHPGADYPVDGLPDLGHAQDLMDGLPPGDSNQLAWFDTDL

T2: B-cat-Halo (beta-catenin HaloTag construct expressed in HEK293 cells) (UniProt P35222 1-781)
T2 sequence (looked up): T1 sequence (looked up)

B1: I-2246 (peptide)
peptide: Ac-[αAllylPro]D[tBuAla][B5(22)]D[(4CF3PhAc)GAbu]AAFL[PyrS2][3Thi][Bta]Q-NH2
modifications: staple 1-4, 4-11
B2: I-2245 (peptide)
peptide: Ac-[αAllylPro]D[tBuAla][B5(22)]D[(4AcMePip)GAbu]AAFL[PyrS2][3Thi][Bta]Q-NH2
modifications: staple 1-4, 4-11
B3: I-2257 (peptide)
peptide: Ac-[αAllylPro]D[tBuAla][B5(3)]D[Phe(3-COOH)]AAFL[PyrS2″][3Thi][Bta]A-NH2
modifications: staple 1-4, 4-11
B4: I-2260 (peptide)
peptide: Ac-[αAllylPro]D[tBuAla][B5(3)]D[Phe(3-COOH)]AA[Phe(3-F)]L[PyrS2″][3Thi][Bta]A-NH2
modifications: staple 1-4, 4-11
B5: I-2261 (peptide)
peptide: Ac-[αAllylPro]D[tBuAla][B5(3)]D[Phe(3-COOH)]AAFL[PyrS2″][Phe(3-F)][Bta]A-NH2
modifications: staple 1-4, 4-11
B6: I-2263 (peptide)
peptide: Ac-[αAllylPro]D[tBuAla][B5(3)]D[Phe(3-COOH)]AAFL[PyrS2″][Phe(4-F)][Bta]A-NH2
modifications: staple 1-4, 4-11
B7: I-2259 (peptide)
peptide: Ac-[αAllylPro]D[tBuAla][B5(3)]D[Phe(3-COOH)]AAFF[PyrS2″][3Thi][Bta]A-NH2
modifications: staple 1-4, 4-11
B8: I-2250 (peptide)
peptide: Ac-[αAllylPro]D[tBuAla][B5(22)]D[GAbu](Acetyl(4-Me-piperazin-1-yl))AAFL[PyrS2][3Thi][Bta]Q-NH2
modifications: staple 1-4, 4-11
B9: I-2248 (peptide)
peptide: Ac-[αAllylPro]D[tBuAla][B5(22)]D[(MeMorphBz)GAbu]AAFL[PyrS2][3Thi][Bta]Q-NH2
modifications: staple 1-4, 4-11
B10: I-2249 (peptide)
peptide: Ac-[αAllylPro]D[tBuAla][B5(22)]D[(MorphAc)GAbu]AAFL[PyrS2][3Thi][Bta]Q-NH2
modifications: staple 1-4, 4-11
B11: I-806 (peptide)
peptide: Ac-[αAllylPro]D[tBuAla][B5(3)]DDAAF[Cit][PyrS2″][3Thi][Bta]H-NH2
modifications: staple 1-4, 4-11
B12: I-805 (peptide)
peptide: Ac-[αAllylPro]D[tBuAla][B5(3)]DDAAF[Cit][PyrS2″][3Thi][Bta]Q-NH2
modifications: staple 1-4, 4-11
B13: I-804 (peptide)
peptide: Ac-[αAllylPro]D[tBuAla][B5(3)]DDAAF[hSer][PyrS2″][3Thi][Bta]H-NH2
modifications: staple 1-4, 4-11
B14: I-810 (peptide)
peptide: Ac-[αAllylPro]D[tBuAla][B5(3)]DDAAFT[PyrS2″][3Thi][Bta]H-NH2
modifications: staple 1-4, 4-11
B15: I-794 (peptide)
peptide: Ac-[αAllylPro]D[tBuAla][B5]DDAAFN[PyrS2][1Nal][Bta]H-NH2
modifications: staple 1-4, 4-11
B16: I-807 (peptide)
peptide: Ac-[αAllylPro]D[tBuAla][B5(3)]DDAAFF[PyrS2″][3Thi][Bta]Q-NH2
modifications: staple 1-4, 4-11
B17: I-811 (peptide)
peptide: Ac-[αAllylPro]D[tBuAla][B5(3)]DDAAFN[PyrS2″][Ala(4-thiazolyl)][Bta]Q-NH2
modifications: staple 1-4, 4-11
B18: I-808 (peptide)
peptide: Ac-[αAllylPro]D[tBuAla][B5(3)]DDAAFF[PyrS2″][3Thi][Bta]H-NH2
modifications: staple 1-4, 4-11
B19: I-802 (peptide)
peptide: Ac-[αAllylPro]D[tBuAla][B5]DDAAFL[PyrS2][3Thi][Bta]H-NH2
modifications: staple 1-4, 4-11

What follows are binders tested against T1, B-cat-Halo (assay: cell-based or functional assay).

| Binder | NanoBRET Abs IC50 [µM] |
| --- | --- |
| B1 | 12.9 |
| B2 | > 20 |
| B3 | 2.9 |
| B4 | 3.1 |
| B5 | 6.4 |
| B6 | 4.3 |
| B7 | 4.3 |
| B8 | 36.2 |
| B9 | 21.5 |
| B10 | 42.2 |

Each binder was assayed against T2, B-cat-Halo (beta-catenin HaloTag …) (assay: cell-based or functional assay).

| Binder | NanoBRET Abs IC50 [µM] |
| --- | --- |
| B11 | 21.6 |
| B12 | 18.5 |
| B13 | 13.5 |
| B14 | 18 |
| B15 | 26.4 |
| B16 | 3.2 |
| B17 | > 20 |
| B18 | 4.4 |
| B19 | 4.8 |
